According to article PMC3359286 (2012):

Molecular target: methemoglobin (Homo sapiens, UniProt P69905)
Experiment: ELISA

Sequence of methemoglobin (P69905 2-142, chain 1 of 2): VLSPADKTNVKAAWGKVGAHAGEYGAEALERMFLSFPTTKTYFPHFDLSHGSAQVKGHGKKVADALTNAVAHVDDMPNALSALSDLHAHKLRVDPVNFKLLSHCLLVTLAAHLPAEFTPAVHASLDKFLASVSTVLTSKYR
Sequence of methemoglobin (chain, as listed by the source, chain 2 of 2): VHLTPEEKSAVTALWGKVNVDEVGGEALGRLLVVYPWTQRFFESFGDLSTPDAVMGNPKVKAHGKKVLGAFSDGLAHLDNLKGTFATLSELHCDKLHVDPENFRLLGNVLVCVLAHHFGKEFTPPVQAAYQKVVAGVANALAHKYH

B1: Shr (protein)
chain: QEPLVQSQLVTTVALTQDNRLLVEEIGPYASQSAGKEYYKHIEKIIVDNDVYEKSLEGERTFDINYQGIKINADLIKDGKHELTIVNKKDGDILITFIKKGDKVTFISAQKLGTTDHQDSLKKDVLSDKTVPQNQGTQKVVKSGKNTANLSLITKLSQEDGAILFPEIDRYSDNKQIKALTQQITKVTVNGTVYKDLISDSVKDTNGWVSNMTGLHLGTKAFKDGENTIVISSKGFEDVTITVTKKDGQIHFVSAKQKQHVTAEDRQSTKLDVTTLEKAIKEADAIIAKESNKDAVKDLAEKLQVIKDSYKEIKDSKLLADTHRLLKDTIESYQAGEVSINNLTEGTYTLNFKANKENSEESSMLQGAFDKRAKLVVKADGTMEISMLNTALGQFLIDFSIESKGTYPAAVRKQVGQKDINGSYIRSEFTMPIDDLDKLHKGAVLVSAMGGQESDLNHYDKYTKLDMTFSKTVTKGWSGYQVETDDKEKGVGTERLEKVLVKLGKDLDGDGKLSKTELEQIRGELRLDHYELTDISLLKHAKNITELHLDGNQITEIPKELFSQMKQLRFLNLRSNHLTYLDKDTFKSNAQLRELYLSSNFIHSLEGGLFQSLHHLEQLDLSKNRIGRLCDNPFEGLSRLTSLGFAENSLEEIPEKALEPLTSLNFIDLSQNNLALLPKTIEKLRALSTIVASRNHITRIDNISFKNLPKLSVLDLSTNEISNLPNGIFKQNNQLTKLDFFNNLLTQVEESVFPDVETLNLDVKFNQIKSVSPKVRALIGQHKLTPQKHIAKLEASLDGEKIKYHQAFSLLDLYYWEQKTNSAIDKELVSVEEYQQLLQEKGSDTVSLLNDMQVDWSIVIQLQKKASNGQYVTVDEKLLSNDPKDDLTGEFSLKDPGTYRIRKALITKKFATQKEHIYLTSNDILVAKGPHSHQKDLVENGLRALNQKQLRDGIYYLNASMLKTDLASESMSNKAINHRVTLVVKKGVSYLEVEFRGIKVGKMLGYLGELSYFVDGYQRDLAGKPVGRTKKAEVVSYFTDVTGLPLADRYGKNYPKVLRMKLIEQAKKDGLVPLQVFVPIMDAISKGSGLQTVFMRLDWASLTTEKAKVVKETNNPQENSHLTSTDQLKGPQNRQQEKTPTSPPSAATGIANLTDLLAKKATGQSTQETSKTDDTDKAEKLKQLVRDHQTSIEGKTAKDTKTKKSDKKHRSNQQSNGEESSSRYHLIAGLSSFMIVALGFIIGRKTLFK
modifications: holoShr (heme-bound), ferric hemoglobin (metHb)
Binder B1 has a Kd of 50 nM.
